Data taken from article PMC11574045, “A cofactor-induced repressive type of transcription factor condensation can be induced by synthetic peptides to suppress tumorigenesis” (The EMBO Journal, 2024).

Test system: HEK293FT cells transfected with TF library
Experiment: Screening of TF condensates based on fluorescent puncta
Format: cell-based
Conditions: Figure 1B numerical data; TF library screen, one value per transcriptional factor
In short: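 HEK293FT cells were reverse-transfected with Flag- or GAL4-tagged TF plasmids (1.6 μg/ml, PEI). After 60 h, cells were cultured 12 h with or without glucose, then fixed and immunostained with anti-Flag or anti-GAL4 and Alexa 488 secondaries. Fluorescent puncta were imaged over fifty random fields per well by high-content imaging.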

Molecule | Z score of condensed fraction
SIX6 (protein, UniProt Q9QZ28 1-246, looked up) Homeobox protein SIX6: MFQLPILNFSPQQVAGVCETLEESGDVERLGRFLWSLPVAPAACEALNKNESVLRARAIVAFHGGNYRELYHILENHKFTKESHAKLQALWLEAHYQEAEKLRGRPLGPVDKYRVRKKFPLPRTIWDGEQKTHCFKERTRHLLREWYLQDPYPNPSKKRELAQATGLTPTQVGNWFKNRRQRDRAAAAKNRLQQQVLSQGPGRVLRSEGEGTPEVLGVASSPAASLSSKAATSAISITSSDSECDI | 1.297
BCL11A (protein, UniProt Q9H165 1-835, looked up) BCL11 transcription factor A: MSRRKQGKPQHLSKREFSPEPLEAILTDDEPDHGPLGAPEGDHDLLTCGQCQMNFPLGDILIFIEHKRKQCNGSLCLEKAVDKPPSPSPIEMKKASNPVEVGIQVTPEDDDCLSTSSRGICPKQEHIADKLLHWRGLSSPRSAHGALIPTPGMSAEYAPQGICKDEPSSYTCTTCKQPFTSAWFLLQHAQNTHGLRIYLESEHGSPLTPRVGIPSGLGAECPSQPPLHGIHIADNNPFNLLRIPGSVSREASGLAEGRFPPTPPLFSPPPRHHLDPHRIERLGAEEMALATHHPSAFDRVLRLNPMAMEPPAMDFSRRLRELAGNTSSPPLSPGRPSPMQRLLQPFQPGSKPPFLATPPLPPLQSAPPPSQPPVKSKSCEFCGKTFKFQSNLVVHRRSHTGEKPYKCNLCDHACTQASKLKRHMKTHMHKSSPMTVKSDDGLSTASSPEPGTSDLVGSASSALKSVVAKFKSENDPNLIPENGDEEEEEDDEEEEEEEEEEEEELTESERVDYGFGLSLEAARHHENSSRGAVVGVGDESRALPDVMQGMVLSSMQHFSEAFHQVLGEKHKRGHLAEAEGHRDTCDEDSVAGESDRIDDGTVNGRGCSPGESASGGLSKKLLLGSPSSLSPFSKRIKLEKEFDLPPAAMPNTENVYSQWLAGYAASRQLKDPFLSFGDSRQSPFASSSEHSSENGSLRFSTPPGELDGGISGRSGTGSGGSTPHISGPGPGRPSSKEGRRSDTCEYCGKVFKNCSNLTVHRRSHTGERPYKCELCNYACAQSSKLTRHMKTHGQVGKDVYKCEICKMPFSVYSTLEKHMKKWHSDRVLNNDIKTE | -0.5173
SMAD7 (protein, UniProt O15105 1-426, looked up) Mothers against …: MFRTKRSALVRRLWRSRAPGGEDEEEGAGGGGGGGELRGEGATDSRAHGAGGGGPGRAGCCLGKAVRGAKGHHHPHPPAAGAGAAGGAEADLKALTHSVLKKLKERQLELLLQAVESRGGTRTACLLLPGRLDCRLGPGAPAGAQPAQPPSSYSLPLLLCKVFRWPDLRHSSEVKRLCCCESYGKINPELVCCNPHHLSRLCELESPPPPYSRYPMDFLKPTADCPDAVPSSAETGGTNYLAPGGLSDSQLLLEPGDRSHWCVVAYWEEKTRVGRLYCVQEPSLDIFYDLPQGNGFCLGQLNSDNKSQLVQKVRSKIGCGIQLTREVDGVWVYNRSSYPIFIKSATLDNPDSRTLLVHKVFPGFSIKAFDYEKAYSLQRPNDHEFMQQPWTGFTVQISFVKGWGQCYTRQFISSCPCWLEVIFNSR | -1.192
SMAD3 (protein, UniProt P84022 2-425, looked up) Mothers against …: SSILPFTPPIVKRLLGWKKGEQNGQEEKWCEKAVKSLVKKLKKTGQLDELEKAITTQNVNTKCITIPRSLDGRLQVSHRKGLPHVIYCRLWRWPDLHSHHELRAMELCEFAFNMKKDEVCVNPYHYQRVETPVLPPVLVPRHTEIPAEFPPLDDYSHSIPENTNFPAGIEPQSNIPETPPPGYLSEDGETSDHQMNHSMDAGSPNLSPNPMSPAHNNLDLQPVTYCEPAFWCSISYYELNQRVGETFHASQPSMTVDGFTDPSNSERFCLGLLSNVNRNAAVELTRRHIGRGVRLYYIGGEVFAECLSDSAIFVQSPNCNQRYGWHPATVCKIPPGCNLKIFNNQEFAALLAQSVNQGFEAVYQLTRMCTIRMSFVKGWGAEYRRQTVTSTPCWIELHLNGPLQWLDKVLTQMGSPSIRCSSVS | -0.8472
SMARCAD1 (protein, UniProt Q9H4L7 1-1026, looked up) SWI/SNF-related …: MNLFNLDRFRFEKRNKIEEAPEATPQPSQPGPSSPISLSAEEENAEGEVSRANTPDSDITEKTEDSSVPETPDNERKASISYFKNQRGIQYIDLSSDSEDVVSPNCSNTVQEKTFNKDTVIIVSEPSEDEESQGLPTMARRNDDISELEDLSELEDLKDAKLQTLKELFPQRSDNDLLKLIESTSTMDGAIAAALLMFGDAGGGPRKRKLSSSSEPYEEDEFNDDQSIKKTRLDHGEESNESAESSSNWEKQESIVLKLQKEFPNFDKQELREVLKEHEWMYTEALESLKVFAEDQDMQYVSQSEVPNGKEVSSRSQNYPKNATKTKLKQKFSMKAQNGFNKKRKKNVFNPKRVVEDSEYDSGSDVGSSLDEDYSSGEEVMEDGYKGKILHFLQDASIGELTLIPQCSQKKAQKITELRPFNSWEALFTKMSKTNGLSEDLIWHCKTLIQERDVVIRLMNKCEDISNKLTKQVTMLTGNGGGWNIEQPSILNQSLSLKPYQKVGLNWLALVHKHGLNGILADEMGLGKTIQAIAFLAYLYQEGNNGPHLIVVPASTIDNWLREVNLWCPTLKVLCYYGSQEERKQIRFNIHSRYEDYNVIVTTYNCAISSSDDRSLFRRLKLNYAIFDEGHMLKNMGSIRYQHLMTINANNRLLLTGTPVQNNLLELMSLLNFVMPHMFSSSTSEIRRMFSSKTKSADEQSIYEKERIAHAKQIIKPFILRRVKEEVLKQLPPKKDRIELCAMSEKQEQLYLGLFNRLKKSINNLEKNTEMCNVMMQLRKMANHPLLHRQYYTAEKLKEMSQLMLKEPTHCEANPDLIFEDMEVMTDFELHVLCKQYRHINNFQLDMDLILDSGKFRVLGCILSELKQKGDRVVLFSQFTMMLDILEVLLKHHQHRYLRLDGKTQISERIHLIDEFNTDMDIFVFLLSTKAGGLGINLTSANVVILHDIDCNPYNDKQAEDRCHRVGQTKEVLVIKLISQGTIEESMLKINQQKLKLEQDMTTVDEGDEGSMPADIATLLKTSMGL | -0.654
SIX1 (protein, UniProt Q15475 1-284, looked up) Homeobox protein SIX1: MSMLPSFGFTQEQVACVCEVLQQGGNLERLGRFLWSLPACDHLHKNESVLKAKAVVAFHRGNFRELYKILESHQFSPHNHPKLQQLWLKAHYVEAEKLRGRPLGAVGKYRVRRKFPLPRTIWDGEETSYCFKEKSRGVLREWYAHNPYPSPREKRELAEATGLTTTQVSNWFKNRRQRDRAAEAKERENTENNNSSSNKQNQLSPLEGGKPLMSSSEEEFSPPQSPDQNSVLLLQGNMGHARSSNYSLPGLTASQPSHGLQTHQHQLQDSLLGPLTSSLVDLGS | -0.6669
SMAD4 (protein, UniProt Q13485 1-552, looked up) Mothers against …: MDNMSITNTPTSNDACLSIVHSLMCHRQGGESETFAKRAIESLVKKLKEKKDELDSLITAITTNGAHPSKCVTIQRTLDGRLQVAGRKGFPHVIYARLWRWPDLHKNELKHVKYCQYAFDLKCDSVCVNPYHYERVVSPGIDLSGLTLQSNAPSSMMVKDEYVHDFEGQPSLSTEGHSIQTIQHPPSNRASTETYSTPALLAPSESNATSTANFPNIPVASTSQPASILGGSHSEGLLQIASGPQPGQQQNGFTGQPATYHHNSTTTWTGSRTAPYTPNLPHHQNGHLQHHPPMPPHPGHYWPVHNELAFQPPISNHPAPEYWCSIAYFEMDVQVGETFKVPSSCPIVTVDGYVDPSGGDRFCLGQLSNVHRTEAIERARLHIGKGVQLECKGEGDVWVRCLSDHAVFVQSYYLDREAGRAPGDAVHKIYPSAYIKVFDLRQCHRQMQQQAATAQAAAAAQAAAVAGNIPGPGSVGGIAPAISLSAAAGIGVDDLRRLCILRMSFVKGWGPDYPRQSIKETPCWIEIHLHRALQLLDEVLHTMPIADPQPLD | -0.5517
SIM1 (protein, UniProt P81133 1-766, looked up) Single-minded homolog 1: MKEKSKNAARTRREKENSEFYELAKLLPLPSAITSQLDKASIIRLTTSYLKMRVVFPEGLGEAWGHSSRTSPLDNVGRELGSHLLQTLDGFIFVVAPDGKIMYISETASVHLGLSQVELTGNSIYEYIHPADHDEMTAVLTAHQPYHSHFVQEYEIERSFFLRMKCVLAKRNAGLTCGGYKVIHCSGYLKIRQYSLDMSPFDGCYQNVGLVAVGHSLPPSAVTEIKLHSNMFMFRASLDMKLIFLDSRVAELTGYEPQDLIEKTLYHHVHGCDTFHLRCAHHLLLVKGQVTTKYYRFLAKHGGWVWVQSYATIVHNSRSSRPHCIVSVNYVLTDTEYKGLQLSLDQISASKPAFSYTSSSTPTMTDNRKGAKSRLSSSKSKSRTSPYPQYSGFHTERSESDHDSQWGGSPLTDTASPQLLDPADRPGSQHDASCAYRQFSDRSSLCYGFALDHSRLVEERHFHTQACEGGRCEAGRYFLGTPQAGREPWWGSRAALPLTKASPESREAYENSMPHIASVHRIHGRGHWDEDSVVSSPDPGSASESGDRYRTEQYQSSPHEPSKIETLIRATQQMIKEEENRLQLRKAPSDQLASINGAGKKHSLCFANYQQPPPTGEVCHGSALANTSPCDHIQQREGKMLSPHENDYDNSPTALSRISSPNSDRISKSSLILAKDYLHSDISPHQTAGDHPTVSPNCFGSHRQYFDKHAYTLTGYALEHLYDSETIRNYSLGCNGSHFDVTSHLRMQPDPAQGHKGTSVIITNGS | -1.099
SIX3 (protein, UniProt O95343 1-332, looked up) Homeobox protein SIX3: MVFRSPLDLYSSHFLLPNFADSHHRSILLASSGGGNGAGGGGGAGGGSGGGNGAGGGGAGGAGGGGGGGSRAPPEELSMFQLPTLNFSPEQVASVCETLEETGDIERLGRFLWSLPVAPGACEAINKHESILRARAVVAFHTGNFRDLYHILENHKFTKESHGKLQAMWLEAHYQEAEKLRGRPLGPVDKYRVRKKFPLPRTIWDGEQKTHCFKERTRSLLREWYLQDPYPNPSKKRELAQATGLTPTQVGNWFKNRRQRDRAAAAKNRLQHQAIGPSGMRSLAEPGCPTHGSAESPSTAASPTTSVSSLTERADTGTSILSVTSSDSECDV | -0.646
SIX2 (protein, UniProt Q9NPC8 1-291, looked up) Homeobox protein SIX2: MSMLPTFGFTQEQVACVCEVLQQGGNIERLGRFLWSLPACEHLHKNESVLKAKAVVAFHRGNFRELYKILESHQFSPHNHAKLQQLWLKAHYIEAEKLRGRPLGAVGKYRVRRKFPLPRSIWDGEETSYCFKEKSRSVLREWYAHNPYPSPREKRELAEATGLTTTQVSNWFKNRRQRDRAAEAKERENNENSNSNSHNPLNGSGKSVLGSSEDEKTPSGTPDHSSSSPALLLSPPPPGLPSLHSLGHPPGPSAVPVPVPGGGGADPLQHHHGLQDSILNPMSANLVDLGS | -0.1884
SIRT2 (protein, UniProt Q8IXJ6 2-389, looked up) NAD-dependent protein …: AEPDPSHPLETQAGKVQEAQDSDSDSEGGAAGGEADMDFLRNLFSQTLSLGSQKERLLDELTLEGVARYMQSERCRRVICLVGAGISTSAGIPDFRSPSTGLYDNLEKYHLPYPEAIFEISYFKKHPEPFFALAKELYPGQFKPTICHYFMRLLKDKGLLLRCYTQNIDTLERIAGLEQEDLVEAHGTFYTSHCVSASCRHEYPLSWMKEKIFSEVTPKCEDCQSLVKPDIVFFGESLPARFFSCMQSDFLKVDLLLVMGTSLQVQPFASLISKAPLSTPRLLINKEKAGQSDPFLGMIMGLGGGMDFDSKKAYRDVAWLGECDQGCLALAELLGWKKELEDLVRREHASIDAQSGAGVPNPSTSASPKKSPPPAKDEARTTEREKPQ | 0.4793
